Test results published in PMC7152798.

Assays:
[1] = target: GST-FMRP C-terminus deleted from the last 63 amino acids (mouse); assay: pull-down; GST-fusion proteins made in yeast, immobilised on glutathione sepharose 4B beads and incubated at 4 °C with lysate of tsA-201 cells transfected with CaV2.2/α2δ-1/β1b; washed four times with ice-cold 1% Triton-PBS; blots with CaV2.2 II-III loop Ab and GST Ab; bands quantified as a percentage of CT
[2] = target: GST-FMRP C-terminus deleted from the last 89 amino acids which includes the RGG motif (mouse); assay: as above

Chain of calcium channel CaV2.2 (Q05152 whole entry): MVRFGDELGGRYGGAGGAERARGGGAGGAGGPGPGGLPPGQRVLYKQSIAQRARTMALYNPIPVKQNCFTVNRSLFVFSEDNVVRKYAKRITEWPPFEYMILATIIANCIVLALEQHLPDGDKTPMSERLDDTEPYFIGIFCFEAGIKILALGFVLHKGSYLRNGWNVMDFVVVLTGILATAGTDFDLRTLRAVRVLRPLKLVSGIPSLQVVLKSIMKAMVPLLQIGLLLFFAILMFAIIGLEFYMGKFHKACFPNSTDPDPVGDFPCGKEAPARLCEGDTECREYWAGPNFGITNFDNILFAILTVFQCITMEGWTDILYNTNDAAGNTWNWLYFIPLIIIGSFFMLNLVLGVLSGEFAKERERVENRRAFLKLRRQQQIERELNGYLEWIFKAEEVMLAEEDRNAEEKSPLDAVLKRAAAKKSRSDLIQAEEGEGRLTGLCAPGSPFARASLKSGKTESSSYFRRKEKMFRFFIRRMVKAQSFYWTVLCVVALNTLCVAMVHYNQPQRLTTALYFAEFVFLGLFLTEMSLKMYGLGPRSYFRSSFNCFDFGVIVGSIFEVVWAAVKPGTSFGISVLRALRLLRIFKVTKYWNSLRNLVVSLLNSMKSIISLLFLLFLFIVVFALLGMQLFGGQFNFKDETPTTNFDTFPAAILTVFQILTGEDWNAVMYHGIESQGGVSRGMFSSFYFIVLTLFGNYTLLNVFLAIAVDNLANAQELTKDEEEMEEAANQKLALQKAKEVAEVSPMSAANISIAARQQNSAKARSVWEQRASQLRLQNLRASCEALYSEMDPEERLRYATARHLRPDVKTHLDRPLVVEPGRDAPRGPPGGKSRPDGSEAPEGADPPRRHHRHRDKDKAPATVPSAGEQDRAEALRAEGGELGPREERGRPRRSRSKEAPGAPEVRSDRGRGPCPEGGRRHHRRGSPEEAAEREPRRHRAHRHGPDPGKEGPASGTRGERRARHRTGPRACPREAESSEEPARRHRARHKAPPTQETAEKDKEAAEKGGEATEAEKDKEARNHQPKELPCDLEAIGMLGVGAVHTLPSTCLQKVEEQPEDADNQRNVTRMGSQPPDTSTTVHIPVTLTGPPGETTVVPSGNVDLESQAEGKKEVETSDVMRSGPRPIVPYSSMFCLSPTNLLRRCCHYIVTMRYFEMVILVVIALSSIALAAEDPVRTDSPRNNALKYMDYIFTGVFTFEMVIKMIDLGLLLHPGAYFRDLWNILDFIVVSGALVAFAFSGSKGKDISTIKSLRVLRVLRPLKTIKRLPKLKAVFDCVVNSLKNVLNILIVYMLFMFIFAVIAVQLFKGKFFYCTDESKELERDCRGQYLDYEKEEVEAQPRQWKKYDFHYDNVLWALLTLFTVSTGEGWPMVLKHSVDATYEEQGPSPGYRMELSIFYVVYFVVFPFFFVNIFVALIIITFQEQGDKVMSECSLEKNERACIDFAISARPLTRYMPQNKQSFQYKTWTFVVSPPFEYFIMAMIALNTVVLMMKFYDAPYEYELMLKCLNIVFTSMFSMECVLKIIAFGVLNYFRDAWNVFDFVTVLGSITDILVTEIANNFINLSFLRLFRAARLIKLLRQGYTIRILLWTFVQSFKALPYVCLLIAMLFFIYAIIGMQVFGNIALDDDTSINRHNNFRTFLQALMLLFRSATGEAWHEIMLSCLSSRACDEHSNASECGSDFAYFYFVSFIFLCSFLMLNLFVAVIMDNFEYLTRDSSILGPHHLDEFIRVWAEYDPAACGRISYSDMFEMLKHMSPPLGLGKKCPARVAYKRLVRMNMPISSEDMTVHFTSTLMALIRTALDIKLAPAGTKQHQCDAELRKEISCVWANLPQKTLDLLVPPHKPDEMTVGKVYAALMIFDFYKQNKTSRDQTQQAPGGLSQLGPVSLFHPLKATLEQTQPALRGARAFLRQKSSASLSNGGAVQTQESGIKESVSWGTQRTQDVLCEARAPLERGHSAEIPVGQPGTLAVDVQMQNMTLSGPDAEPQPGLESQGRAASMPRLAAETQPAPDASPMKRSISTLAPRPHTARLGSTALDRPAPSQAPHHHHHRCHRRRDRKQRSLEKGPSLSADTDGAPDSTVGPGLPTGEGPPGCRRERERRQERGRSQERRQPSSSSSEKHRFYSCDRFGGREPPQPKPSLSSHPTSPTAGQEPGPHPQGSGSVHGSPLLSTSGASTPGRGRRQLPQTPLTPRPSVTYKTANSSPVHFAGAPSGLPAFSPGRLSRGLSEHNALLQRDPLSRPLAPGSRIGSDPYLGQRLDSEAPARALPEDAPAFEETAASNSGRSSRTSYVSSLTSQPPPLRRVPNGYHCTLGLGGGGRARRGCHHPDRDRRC

“calcium channel CaV2.2 (from UniProt Q05152 1-2339) (natural protein)” gave a reduction of the binding relative to CT [1] of 61.7% and a reduction of the binding relative to CT [2] of 79.5%.
